The assay addresses HLA-B*07:02. Nature of the assay: IEDB peptide-MHC binding, purified MHC/competitive/fluorescence; ≥ and ≤ were set here for values at or beyond the usual limits of such assays.

With LPFDKITIM, the concentration for half-maximal inhibition (IC50) (source organism: H1N1 subtype) amounted to 4810 nM.

In turn, LPFDKPTIM displayed an IC50 (source organism: H3N2 subtype) of 335 nM. LPFDKQTIM: the concentration for half-maximal inhibition (IC50) (source organism: H3N2 subtype) came to 46500 nM.

LPFDKTTIM: the IC50 (source organism: H1N1 subtype Influenza A/Oklahoma/7485/01) came to 192 nM.

Take LPFDRPTIM: the IC50 (source organism: H1N1 subtype) was 7910 nM. Turning to LPFEKSIVM, the IC50 (source organism: H3N2 subtype) turned out to be 494 nM. For LPFEKTTIM, the concentration for half-maximal inhibition (IC50) (source organism: H1N1 subtype) amounted to 1190 nM. LPFERATII: under “source organism: H3N2 subtype”, the IC50 worked out at 1180 nM. For the sequence LPFERSTVM, the IC50 (source organism: H3N2 subtype) was at least 149000 nM. In the case of LPFGKTTIM, the IC50 (source organism: H1N1 subtype) came out at 881 nM.

These data come from the Immune Epitope Database (IEDB).
